B1: SNX8 (parent)
chain: VVLKLFLSFSGSDVQNKLKESAQC
B2: TOR1AIP2 (parent)
chain: HHVADAYTSSQKVSPIQIDGAGRT
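Further: lentivirally expressed fusions sorted by FACS into six bins by GFP to DsRed ratio, PSI derived from sequencing read proportions per bin multiplied by bin number.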

Variants of: B1
Test: protein stability index of a GFP-peptide fusion (GPS, HEK-293T) (PSI 1-6); higher = more stable
Conditions: c terminus: a fixed tail appended
Work on VVLKLFLSFDGSDVQNKLKESAQC [S10D] yielded a protein stability index of 2.68.

Variants of: B2
Test: as above
Conditions: c terminus: a fixed tail appended
With HHVADAYTSSQKVSPIQIDGDGRT [A21D] the protein stability index was 4.16. For HHVADAYTSSQKVSPIQIDGKGRT [A21K], the protein stability index was 3.42. HHVADAYTSSQKVSPIQIDGFGRT [A21F] showed a protein stability index of 3.18. With HHVADAYTSSQKVSPIQIDGSGRT [A21S] the protein stability index was 3.67. Work on HHVADAYTSSQKVSPIQIDGPGRT [A21P] yielded a protein stability index of 3.48. Work on HHVADAYTSSQKVSPIQIDGYGRT [A21Y] yielded a protein stability index of 3.22. HHVADAYTSSQKVSPIQIDGRGRT [A21R] gave a protein stability index of 3.55. Work on HHVADAYTSSQKVSPIQIDGNGRT [A21N] yielded a protein stability index of 3.44. For HHVADAYTSSQKVSPIQIDGWGRT [A21W], the protein stability index was 2.67. In the case of HHVADAYTSSQKVSPIQIDGGGRT [A21G], the protein stability index is reported as 3.62. HHVADAYTSSQKVSPIQIDGLGRT [A21L] showed a protein stability index of 3.42. For HHVADAYTSSQKVSPIQIDGEGRT [A21E], the protein stability index was 3.32. For HHVADAYTSSQKVSPIQIDGHGRT [A21H], the protein stability index was 3.7. With HHVADAYTSSQKVSPIQIDGVGRT [A21V] the protein stability index was 3.34. HHVADAYTSSQKVSPIQIDGCGRT [A21C] gave a protein stability index of 3.48. Work on HHVADAYTSSQKVSPIQIDGIGRT [A21I] yielded a protein stability index of 3.34. In the case of HHVADAYTSSQKVSPIQIDGMGRT [A21M], the protein stability index is reported as 3.58. Work on HHVADAYTSSQKVSPIQIDGQGRT [A21Q] yielded a protein stability index of 3.85. Work on HHVADAYTSSQKVSPIQIDGTGRT [A21T] yielded a protein stability index of 3.85. Work on HHVADAYTSSQKVSPIQIPGAGRT [D19P] yielded a protein stability index of 3.06. For HHVADAYTSSQKVSPIQIGGAGRT [D19G], the protein stability index was 3.4. Variant HHVADAYTSSQKVSPIQIYGAGRT [D19Y] has a protein stability index of 2.47. In the case of HHVADAYTSSQKVSPIQIWGAGRT [D19W], the protein stability index is reported as 1.94. With HHVADAYTSSQKVSPIQIAGAGRT [D19A] the protein stability index was 3.01. For HHVADAYTSSQKVSPIQIIGAGRT [D19I], the protein stability index was 2.54. Work on HHVADAYTSSQKVSPIQISGAGRT [D19S] yielded a protein stability index of 3.2. With HHVADAYTSSQKVSPIQIQGAGRT [D19Q] the protein stability index was 3.75. Work on HHVADAYTSSQKVSPIQIKGAGRT [D19K] yielded a protein stability index of 3.14. HHVADAYTSSQKVSPIQIMGAGRT [D19M] showed a protein stability index of 2.7. HHVADAYTSSQKVSPIQILGAGRT [D19L] showed a protein stability index of 2.36. With HHVADAYTSSQKVSPIQICGAGRT [D19C] the protein stability index was 3.1. HHVADAYTSSQKVSPIQIEGAGRT [D19E] gave a protein stability index of 3.43. Variant HHVADAYTSSQKVSPIQIVGAGRT [D19V] has a protein stability index of 3.28. In the case of HHVADAYTSSQKVSPIQIFGAGRT [D19F], the protein stability index is reported as 2.77. For HHVADAYTSSQKVSPIQITGAGRT [D19T], the protein stability index was 3.07. In the case of HHVADAYTSSQKVSPIQIHGAGRT [D19H], the protein stability index is reported as 2.87. Variant HHVADAYTSSQKVSPIQINGAGRT [D19N] has a protein stability index of 3.34. HHVADAYTSSQKVSPIQIRGAGRT [D19R] showed a protein stability index of 2.93. HHVADAYTSSQKVSPIIIDGAGRT [Q17I] showed a protein stability index of 3.05. HHVADAYTSSQKVSPIGIDGAGRT [Q17G] showed a protein stability index of 3.29. In the case of HHVADAYTSSQKVSPIYIDGAGRT [Q17Y], the protein stability index is reported as 2.66. HHVADAYTSSQKVSPINIDGAGRT [Q17N] gave a protein stability index of 3.64. For HHVADAYTSSQKVSPILIDGAGRT [Q17L], the protein stability index was 3.57. With HHVADAYTSSQKVSPIKIDGAGRT [Q17K] the protein stability index was 3.63. In the case of HHVADAYTSSQKVSPICIDGAGRT [Q17C], the protein stability index is reported as 3.26. Work on HHVADAYTSSQKVSPIAIDGAGRT [Q17A] yielded a protein stability index of 3.55. In the case of HHVADAYTSSQKVSPIWIDGAGRT [Q17W], the protein stability index is reported as 2.31. For HHVADAYTSSQKVSPIFIDGAGRT [Q17F], the protein stability index was 3.05. In the case of HHVADAYTSSQKVSPIMIDGAGRT [Q17M], the protein stability index is reported as 2.99. For HHVADAYTSSQKVSPISIDGAGRT [Q17S], the protein stability index was 3.69. Work on HHVADAYTSSQKVSPIVIDGAGRT [Q17V] yielded a protein stability index of 3.49. In the case of HHVADAYTSSQKVSPIHIDGAGRT [Q17H], the protein stability index is reported as 3.17. HHVADAYTSSQKVSPIRIDGAGRT [Q17R] showed a protein stability index of 3.72. With HHVADAYTSSQKVSPIPIDGAGRT [Q17P] the protein stability index was 3.93. HHVADAYTSSQKVSPITIDGAGRT [Q17T] gave a protein stability index of 3.41. HHVADAYTSSQKVSPIDIDGAGRT [Q17D] gave a protein stability index of 3.67. With HHVADAYTSSQKVSPIEIDGAGRT [Q17E] the protein stability index was 3.65. With HHVADAYTSSQKVSPIQEDGAGRT [I18E] the protein stability index was 3.73. Work on HHVADAYTSSQKVSPIQMDGAGRT [I18M] yielded a protein stability index of 3.84. HHVADAYTSSQKVSPIQRDGAGRT [I18R] showed a protein stability index of 3.58. Work on HHVADAYTSSQKVSPIQADGAGRT [I18A] yielded a protein stability index of 4.03. HHVADAYTSSQKVSPIQDDGAGRT [I18D] showed a protein stability index of 4.28. With HHVADAYTSSQKVSPIQNDGAGRT [I18N] the protein stability index was 3.96. Work on HHVADAYTSSQKVSPIQFDGAGRT [I18F] yielded a protein stability index of 2.9. HHVADAYTSSQKVSPIQPDGAGRT [I18P] gave a protein stability index of 4.15. For HHVADAYTSSQKVSPIQHDGAGRT [I18H], the protein stability index was 3.85. Variant HHVADAYTSSQKVSPIQTDGAGRT [I18T] has a protein stability index of 3.87. HHVADAYTSSQKVSPIQWDGAGRT [I18W] gave a protein stability index of 3.26. HHVADAYTSSQKVSPIQSDGAGRT [I18S] showed a protein stability index of 3.72. In the case of HHVADAYTSSQKVSPIQKDGAGRT [I18K], the protein stability index is reported as 3.98. With HHVADAYTSSQKVSPIQVDGAGRT [I18V] the protein stability index was 3.76. HHVADAYTSSQKVSPIQCDGAGRT [I18C] showed a protein stability index of 3.61. For HHVADAYTSSQKVSPIQLDGAGRT [I18L], the protein stability index was 3.57. For HHVADAYTSSQKVSPIQGDGAGRT [I18G], the protein stability index was 3.47. HHVADAYTSSQKVSPIQQDGAGRT [I18Q] gave a protein stability index of 3.75. In the case of HHVADAYTSSQKVSPIQYDGAGRT [I18Y], the protein stability index is reported as 2.97. HHVADAYTSSQKVSPIQIDGAIRT [G22I] showed a protein stability index of 3.26. Variant HHVADAYTSSQKVSPIQIDGAHRT [G22H] has a protein stability index of 3.47. Variant HHVADAYTSSQKVSPIQIDGATRT [G22T] has a protein stability index of 3.09. With HHVADAYTSSQKVSPIQIDGAWRT [G22W] the protein stability index was 2.46. For HHVADAYTSSQKVSPIQIDGAPRT [G22P], the protein stability index was 3.61. In the case of HHVADAYTSSQKVSPIQIDGAYRT [G22Y], the protein stability index is reported as 2.82. With HHVADAYTSSQKVSPIQIDGAART [G22A] the protein stability index was 3.58. HHVADAYTSSQKVSPIQIDGAVRT [G22V] gave a protein stability index of 3.4. Variant HHVADAYTSSQKVSPIQIDGAERT [G22E] has a protein stability index of 3.93. Variant HHVADAYTSSQKVSPIQIDGAMRT [G22M] has a protein stability index of 3.32. Work on HHVADAYTSSQKVSPIQIDGAFRT [G22F] yielded a protein stability index of 2.7. Variant HHVADAYTSSQKVSPIQIDGASRT [G22S] has a protein stability index of 3.36. For HHVADAYTSSQKVSPIQIDGARRT [G22R], the protein stability index was 3.19. HHVADAYTSSQKVSPIQIDGANRT [G22N] gave a protein stability index of 3.25. For HHVADAYTSSQKVSPIQIDGAQRT [G22Q], the protein stability index was 3.5. Work on HHVADAYTSSQKVSPIQIDGACRT [G22C] yielded a protein stability index of 3.6. In the case of HHVADAYTSSQKVSPIQIDGADRT [G22D], the protein stability index is reported as 3.99.

Reference: the supplement of paper PMC10567573
